Measured values taken from patent US20140363428A1 (Chugai, published 2014).

target: T1, soluble human FcRn (human, UniProt P55899 24-297; P61769 21-119); assay: SPR (Biacore T100), antibody captured by protein L, hFcRn as analyte, pH 7.0, 25 C;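 also: KD calculated from fitted association and dissociation rate constants of the sensorgrams, protein L amine-coupled to the sensor chip, sodium phosphate running buffer with NaCl and Tween20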
T1 construct: Heterodimer of FcRn alpha chain and beta2-microglobulin; also called hFcRn
Description: An appropriate amount of protein L (ACTIGEN) was immobilized onto Sensor chip CM4 (GE Healthcare) by the amino coupling method, and the chip was allowed to capture an antibody of interest. Then, diluted FcRn solutions and running buffer (as a reference solution) were injected to allow human FcRn to interact with the antibody captured on the sensor chip. The running buffer used comprised 50 mmol/l sodium phosphate, 150 mmol/l NaCl, and 0.05% (w/v) Tween20 (pH 7.0). FcRn was diluted using each buffer. The chip was regenerated using 10 mmol/l glycine-HCl (pH 1.5). Assays were carried out exclusively at 25 degrees C. The association rate constant ka (1/Ms) and dissociation rate constant kd (1/s), both of which are kinetic parameters, were calculated based on the sensorgrams obtained in the assays, and KD (M) of each antibody for human FcRn was determined from these values. Each parameter was calculated using Biacore T100 Evaluation Software (GE Healthcare).

Binder | Kd [nM]
IgG1-F1262 (antibody, EU numbering; copies: 2 + 2) heavy: QVQLQESGPGLVKPSETLSLTCAVSGHSISHDHAWSWVRQPPGEGLEWIGFISYSGITNYNPSLQGRVTISRDNSKNTLYLQMNSLRAEDTAVYYCARSLARTTAMDYWGEGTLVTVSSASTKGPSVFPLAPSSKSTSGGTAALGCLVKDYFPEPVTVSWNSGALTSGVHTFPAVLQSSGLYSLSSVVTVPSSSLGTQTYICNVNHKPSNTKVDKKVEPKSCDKTHTCPPCPAPELRGGPKVFLFPPKPKDTLYISRTPEVTCVVVDVSHEDPEVKFNWYVDGVEVHNAKTKPREEQYNSTYRVVSVLTVLHQDWLNGKEYKCKVSNKALPAPIEKTISKAKGQPREPQVYTLPPSRDELTKNQVSLTCLVKGFYPSDIAVEWESNGQPENNYKTTPPVLDSDGSFFLYSKLTVDKSRWQQGNVFSCSVMHEALHYHVTKKELSLSP light: not shown | 130
IgG1-F1188 (antibody, EU numbering; copies: 2 + 2) heavy: QVQLQESGPGLVKPSETLSLTCAVSGHSISHDHAWSWVRQPPGEGLEWIGFISYSGITNYNPSLQGRVTISRDNSKNTLYLQMNSLRAEDTAVYYCARSLARTTAMDYWGEGTLVTVSSASTKGPSVFPLAPSSKSTSGGTAALGCLVKDYFPEPVTVSWNSGALTSGVHTFPAVLQSSGLYSLSSVVTVPSSSLGTQTYICNVNHKPSNTKVDKKVEPKSCDKTHTCPPCPAPELLGGPSVFLFPPKPKDTLMISRTPEVTCVVVDVSHEDPEVKFNWYVDGVEVHNAKTKPREEQYNSTYRVVSVLAVLHQDWLNGKEYKCKVSNKALPAPIEKTISKAKGQPREPQVYTLPPSRDELTKNQVSLTCLVKGFYPSDIAVAWESNGQPENNYKTTPPVLDSDGSFFLYSKLTVDKSRWQQGNVFSCSVMHEALHHHYTQKSLSLSP light: not shown | 1700
IgG1-F1183 (antibody, EU numbering; copies: 2 + 2) heavy: QVQLQESGPGLVKPSETLSLTCAVSGHSISHDHAWSWVRQPPGEGLEWIGFISYSGITNYNPSLQGRVTISRDNSKNTLYLQMNSLRAEDTAVYYCARSLARTTAMDYWGEGTLVTVSSASTKGPSVFPLAPSSKSTSGGTAALGCLVKDYFPEPVTVSWNSGALTSGVHTFPAVLQSSGLYSLSSVVTVPSSSLGTQTYICNVNHKPSNTKVDKKVEPKSCDKTHTCPPCPAPELLGGPSVFLFPPKPKDTLMISRTPEVTCVVVDVSHEDPEVKFNWYVDGVEVHNAKTKPREEQYNSTYRVVSVLTVLHQDWLNGKEYKCKVSNKALPAPIEKTISKAKGQPREPQVYTLPPSRDELTKNQVSLTCLVKGFYPSDIAVAWESNGQPENNYKTTPPVLDSDGSFFLYSKLTVDKSRWQQGNVFSCSVLHEALHSHYTQKSLSLSP light: not shown | 1300
IgG1-F1165 (antibody, EU numbering; copies: 2 + 2) heavy: QVQLQESGPGLVKPSETLSLTCAVSGHSISHDHAWSWVRQPPGEGLEWIGFISYSGITNYNPSLQGRVTISRDNSKNTLYLQMNSLRAEDTAVYYCARSLARTTAMDYWGEGTLVTVSSASTKGPSVFPLAPSSKSTSGGTAALGCLVKDYFPEPVTVSWNSGALTSGVHTFPAVLQSSGLYSLSSVVTVPSSSLGTQTYICNVNHKPSNTKVDKKVEPKSCDKTHTCPPCPAPELLGGDSVFLFPPKPKDYLYISRTPEVTCVVVDVSHEDPEVKFNWYVDGVEVHNAKTKPREEQYNSTYRVVSVLQPLHADWLNGKEYKCKVSNKALPAPIEKTISKAKGQPREPQVYTLPPSRDELTKNQVSLTCLVKGFYPSDIAVEWESNGQPENNYKTTPPVLDSDGSFFLYSKLTVDKSRWQQGNVFSCSVMHEALHYHVTQKSLSLSP light: not shown | 16
IgG1-F1162 (antibody, EU numbering; copies: 2 + 2) heavy: QVQLQESGPGLVKPSETLSLTCAVSGHSISHDHAWSWVRQPPGEGLEWIGFISYSGITNYNPSLQGRVTISRDNSKNTLYLQMNSLRAEDTAVYYCARSLARTTAMDYWGEGTLVTVSSASTKGPSVFPLAPSSKSTSGGTAALGCLVKDYFPEPVTVSWNSGALTSGVHTFPAVLQSSGLYSLSSVVTVPSSSLGTQTYICNVNHKPSNTKVDKKVEPKSCDKTHTCPPCPAPELLGGDSVFLFPPKPKDYLYISRTPEVTCVVVDVSHEDPEVKFNWYVDGVEVHNAKTKPREEQYNSTYRVVSVLTVLHQDWLNGKEYKCKVSNKALPAPIEKTISKAKGQPREPQVYTLPPSRDELTKNQVSLTCLVKGFYPSDIAVEWESNGQPENNYKTTPPVLDSDGSFFLYSKLTVDKSRWQQGNVFSCSVMHEALHYHVTQKSLSLSP light: not shown | 340
IgG1-F1164 (antibody, EU numbering; copies: 2 + 2) heavy: QVQLQESGPGLVKPSETLSLTCAVSGHSISHDHAWSWVRQPPGEGLEWIGFISYSGITNYNPSLQGRVTISRDNSKNTLYLQMNSLRAEDTAVYYCARSLARTTAMDYWGEGTLVTVSSASTKGPSVFPLAPSSKSTSGGTAALGCLVKDYFPEPVTVSWNSGALTSGVHTFPAVLQSSGLYSLSSVVTVPSSSLGTQTYICNVNHKPSNTKVDKKVEPKSCDKTHTCPPCPAPELLGGDSVFLFPPKPKDYLYISRTPEVTCVVVDVSHEDPEVKFNWYVDGVEVHNAKTKPREEQYNSTYRVVSVLQVLHADWLNGKEYKCKVSNKALPAPIEKTISKAKGQPREPQVYTLPPSRDELTKNQVSLTCLVKGFYPSDIAVEWESNGQPENNYKTTPPVLDSDGSFFLYSKLTVDKSRWQQGNVFSCSVMHEALHYHVTQKSLSLSP light: not shown | 70

The remaining lines, values ahead:

Kd [nM] | Binder
150 | IgG1-F1163 (antibody, EU numbering; copies: 2 + 2) heavy: QVQLQESGPGLVKPSETLSLTCAVSGHSISHDHAWSWVRQPPGEGLEWIGFISYSGITNYNPSLQGRVTISRDNSKNTLYLQMNSLRAEDTAVYYCARSLARTTAMDYWGEGTLVTVSSASTKGPSVFPLAPSSKSTSGGTAALGCLVKDYFPEPVTVSWNSGALTSGVHTFPAVLQSSGLYSLSSVVTVPSSSLGTQTYICNVNHKPSNTKVDKKVEPKSCDKTHTCPPCPAPELLGGDSVFLFPPKPKDYLYISRTPEVTCVVVDVSHEDPEVKFNWYVDGVEVHNAKTKPREEQYNSTYRVVSVLQVLHADWLNGKEYKCKVSNKALPAPIEKTISKAKGQPREPQVYTLPPSRDELTKNQVSLTCLVKGFYPSDIAVEWESNGQPENNYKTTPPVLDSDGSFFLYSKLTVDKSRWQQGNVFSCSVMHEALHYHYTQKSLSLSP light: not shown
290 | IgG1-F1160 (antibody, EU numbering; copies: 2 + 2) heavy: QVQLQESGPGLVKPSETLSLTCAVSGHSISHDHAWSWVRQPPGEGLEWIGFISYSGITNYNPSLQGRVTISRDNSKNTLYLQMNSLRAEDTAVYYCARSLARTTAMDYWGEGTLVTVSSASTKGPSVFPLAPSSKSTSGGTAALGCLVKDYFPEPVTVSWNSGALTSGVHTFPAVLQSSGLYSLSSVVTVPSSSLGTQTYICNVNHKPSNTKVDKKVEPKSCDKTHTCPPCPAPELLGGPSVFLFPPKPKDTLMISRTPEVTCVVVDVSHEDPEVKFNWYVDGVEVHNAKTKPREEQYNSTYRVVSVLTFLHQDWLNGKEYKCKVSNKALPAPIEKTISKAKGQPREPQVYTLPPSRDELTKNQVSLTCLVKGFYPSDIAVEWESNGQPENNYKTTPPVLDSDGSFFLYSKLTVDKSRWQQGNVFNCSVMHEALHYHYTQKSLSLSP light: not shown
920 | IgG1-F1185 (antibody, EU numbering; copies: 2 + 2) heavy: QVQLQESGPGLVKPSETLSLTCAVSGHSISHDHAWSWVRQPPGEGLEWIGFISYSGITNYNPSLQGRVTISRDNSKNTLYLQMNSLRAEDTAVYYCARSLARTTAMDYWGEGTLVTVSSASTKGPSVFPLAPSSKSTSGGTAALGCLVKDYFPEPVTVSWNSGALTSGVHTFPAVLQSSGLYSLSSVVTVPSSSLGTQTYICNVNHKPSNTKVDKKVEPKSCDKTHTCPPCPAPELLGGPSVFLFPPKPKDTLMISRTPEVTCVVVDVSHEDPEVKFNWYVDGVEVHNAKTKPREEQYNSTYRVVSVLAVLHQDWLNGKEYKCKVSNKALPAPIEKTISKAKGQPREPQVYTLPPSRDELTKNQVSLTCLVKGFYPSDIAVAWESNGQPENNYKTTPPVLDSDGSFFLYSKLTVDKSRWQQGNVFSCSVLHEALHSHYTQKSLSLSP light: not shown
160 | IgG1-F1189 (antibody, EU numbering; copies: 2 + 2) heavy: QVQLQESGPGLVKPSETLSLTCAVSGHSISHDHAWSWVRQPPGEGLEWIGFISYSGITNYNPSLQGRVTISRDNSKNTLYLQMNSLRAEDTAVYYCARSLARTTAMDYWGEGTLVTVSSASTKGPSVFPLAPSSKSTSGGTAALGCLVKDYFPEPVTVSWNSGALTSGVHTFPAVLQSSGLYSLSSVVTVPSSSLGTQTYICNVNHKPSNTKVDKKVEPKSCDKTHTCPPCPAPELLGGPSVFLFPPKPKDTLYISRTPEVTCVVVDVSHEDPEVKFNWYVDGVEVHNAKTKPREEQYNSTYRVVSVLTVLHQDWLNGKEYKCKVSNKALPAPIEKTISKAKGQPREPQVYTLPPSRDELTKNQVSLTCLVKGFYPSDIAVEWESNGQPENNYKTTPPVLDSDGSFFLYSKLTVDKSRWQQGNVFSCSVMHEALDYHVTRKELSLSP light: not shown
870 | IgG1-F1178 (antibody, EU numbering; copies: 2 + 2) heavy: QVQLQESGPGLVKPSETLSLTCAVSGHSISHDHAWSWVRQPPGEGLEWIGFISYSGITNYNPSLQGRVTISRDNSKNTLYLQMNSLRAEDTAVYYCARSLARTTAMDYWGEGTLVTVSSASTKGPSVFPLAPSSKSTSGGTAALGCLVKDYFPEPVTVSWNSGALTSGVHTFPAVLQSSGLYSLSSVVTVPSSSLGTQTYICNVNHKPSNTKVDKKVEPKSCDKTHTCPPCPAPELLGGPSVFLFPPKPKDTLMISRTPEITCVVVDVSHEDPEVKFNWYVDGVEVHNAKTKPREEQYNSTYRVVSVLTFLHQDWLNGKEYKCKVSNKALPAPIEKTISKAKGQPREPQVYTLPPSRDELTKNQVSLTCLVKGFYPSDIAVEWESNGQPENNYKTTPPVLDSDGSFFLYSKLTVDKSRWQQGNVFSCSVLHEALHNHYTQKSLSLSP light: not shown
1100 | IgG1-F1161 (antibody, EU numbering; copies: 2 + 2) heavy: QVQLQESGPGLVKPSETLSLTCAVSGHSISHDHAWSWVRQPPGEGLEWIGFISYSGITNYNPSLQGRVTISRDNSKNTLYLQMNSLRAEDTAVYYCARSLARTTAMDYWGEGTLVTVSSASTKGPSVFPLAPSSKSTSGGTAALGCLVKDYFPEPVTVSWNSGALTSGVHTFPAVLQSSGLYSLSSVVTVPSSSLGTQTYICNVNHKPSNTKVDKKVEPKSCDKTHTCPPCPAPELLGGPSVFLFPPKPKDTLMISRTPEVTCVVVDVSHEDPEVKFNWYVDGVEVHNAKTKPREEQYNSTYRVVSVLTVLHQDWLNGKEYKCKVSNKALPAPVEKTISKAKGQPREPQVYTLPPSRDELTKNQVSLTCLVKGFYPSDIAVEWESNGQPENNYKTTPPVLDSDGSFFLYSKLTVDKSRWQQGNVFNCSVMHEALHYHYTQKSLSLSP light: not shown
